Measured values as given in the supplement of paper PMC9170038.

System: MS2 coat protein
Experiment: apparent KD of MS2 coat protein; designed switch direction (-1 OFF switch, 1 ON switch): 1; higher = weaker reporter binding
Outline: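 The reported apparent KD is a per-design median over clusters, from curve fits of normalised cluster fluorescence. Protein titrations used SNAP-549-labelled MS2 coat protein, doubled from 0.7 or 1.5 nM to 3 µM, in Tris-HCl pH 7.5 buffer with KCl, MgCl2, BSA, DTT, tRNA and Tween-20, with no input, 200 uM small-molecule ligand, or an oligonucleotide input. The RNA switches were transcribed on Illumina chips by stalled E. coli RNA polymerase.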

[1] = input ligand: microRNA oligo, concentration not stated
[2] = Eterna round: R95, input ligand: FMN 200 uM
[3] = Eterna round: R95, input ligand: microRNA oligo, concentration not stated
[4] = Eterna round: R95, input ligand: none

Row | Sequence | apparent KD of MS2 coat protein (input ligand: FMN 200 uM) | apparent KD of MS2 coat protein [1] | apparent KD of MS2 coat protein (input ligand: none) | apparent KD of MS2 coat protein [2] | apparent KD of MS2 coat protein [3] | apparent KD of MS2 coat protein [4]
1 | AGUCCAGCCUGAGCUGGACAAAAGCAUGUACAUGAGGAUCACCCAUGUCAUGUACAAGCUUUUUGCUCGUCUUAAGA [Mat - hsa-mir-208a - Mod of JL - D21] (Eterna round: R96, puzzle: Sensor for hsa-mir-208a) | 806 nM | 16.2 nM | 840 nM |  |  | 
2 | AGUCCAGCCUGAGCUGGACAAAAGCAUGUACAUGAGGAUCACCCAUGUCAUGUACAAGCUUUUUGCUCGUCUUAAGA [Mat - hsa-mir-208a - Mod of JL - D21] (puzzle: Sensor for hsa-mir-208a) |  |  |  | 561 nM | 16.5 nM | 933 nM
3 | AGUCCAGCCUGAGCUGGACAAAAGCAUGUACAUGAGGAUCACCCAUGUCAUGUACAAGCUUUUUGCUCGUCUUAUUA [Mat - hsa-mir-208a - Mod of JL - D24] (puzzle: Sensor for hsa-mir-208a) |  |  |  | 694 nM | 16.3 nM | 722 nM
4 | AGUCCAGCCUGAGCUGGACAAAAGCAUGUACAUGAGGAUCACCCAUGUUAUGUACAAGCUUUUUGCUCGUCUUAAUA [Zipper 49 - 10] (puzzle: Sensor for hsa-mir-208a) |  |  |  | 165 nM | 14.3 nM | 238 nM
5 | AGUCCAGCCUGAGCUGGACAAAAGCAUGUACAUGAGGAUCACCCAUGUUCAUGUACAAGCUUUUUGCUCGUAUUAAA [Mat - hsa-mir-208a - Mod of JL - 52] (puzzle: Sensor for hsa-mir-208a) |  |  |  | 555 nM | 14.8 nM | 566 nM
6 | AGUCCAGCCUGAGCUGGACAAAAGCAUGUACAUGAGGAUCACCCAUGUUCAUGUACAAGCUUUUUGCUCGUCUUAAU [salish99_208a_r3_027] (puzzle: Sensor for hsa-mir-208a) |  |  |  | 480 nM | 14 nM | 643 nM
7 | AGUCCAGCCUGAGCUGGACAAAAGCAUGUACAUGAGGAUCACCCAUGUUCAUGUACAAGCUUUUUGCUCGUCUUAGA [salish99_208a_r3_059] (puzzle: Sensor for hsa-mir-208a) |  |  |  | 709 nM | 15.4 nM | 732 nM
8 | AGUCCAGCCUGAGCUGGACAAAAGUAUGUACAUGAGGAUCACCCAUGUCAUGUACAAGCUUUUUGCUCGUCUUAAUA [Zipper 49 - 9] (puzzle: Sensor for hsa-mir-208a) |  |  |  | 404 nM | 24.1 nM | 511 nM
9 | AGUCCAGCCUGAGCUGGACAAGAGCAUGUACAUGAGGAUCACCCAUGUUCAUGUACAAGCUUUUUGCUCGUCUUAAA [Zipper 52 - 2] (puzzle: Sensor for hsa-mir-208a) |  |  |  | 399 nM | 12.7 nM | 565 nM
10 | AGUCCAGCCUGAGCUGGACAGAAGCAUGUACAUGAGGAUCACCCAUGUUCAUGUACAAGCUUUUUGCUCGUCUUAAA [Zipper 52 - 3] (puzzle: Sensor for hsa-mir-208a) |  |  |  | 480 nM | 14.2 nM | 436 nM
11 | AGUCCAGCCUGAGCUGGACAUUAGCAUGUACAUGAGGAUCACCCAUGUCAUGUACAAGCUAUUUGCUCGUCUUAAAA [Mat - Sensor - JL mod - D76] (Eterna round: R96, puzzle: Sensor for hsa-mir-208a) | 592 nM | 15.7 nM | 455 nM |  |  | 
12 | AGUCCAGCGAAAGCUGGACAAAAGCAUGUACAUGAGGAUCACCCAUGUUCAUGUACAAGUUUUUUGCUCGUCUUAAA [JL mod - D95 - 13] (puzzle: Sensor for hsa-mir-208a) |  |  |  | 33.7 nM | 10.4 nM | 32 nM
13 | AGUCCAGCGAAAGCUGGACAAGAGCAUGUACAUGAGGAUCACCCAUGUUCAUGUACAAGCUUUUUGCUCGUCUUAAA [JL mod - D95 - 2] (puzzle: Sensor for hsa-mir-208a) |  |  |  | 384 nM | 14.3 nM | 439 nM
14 | AGUCCGGCCUGAGCUGGACUGAAGCAUGUACAUGAGGAUCACCCAUGUUCAUGUGCAGGCUUUUUGCUCGUCUUGUG [JL-shm-2.04 JL mod] (Eterna round: R96, puzzle: Sensor for hsa-mir-208a) | 115 nM | 12.6 nM | 103 nM |  |  | 
15 | AGUCCGGCCUGAGCUGGACUGAAGCAUGUACAUGAGGAUCACCCAUGUUCAUGUGCAGGCUUUUUGCUCGUCUUGUG [JL-shm-2.04 JL mod] (puzzle: Sensor for hsa-mir-208a) |  |  |  | 97.7 nM | 13.4 nM | 124 nM
16 | AGUCCUGAAAAGAAAAUACAGAGAUAUGUACAUGAGGAUCACCCAUGUCAUGUACAAGUUCUAUGCUCGUCAUAUAA [Sensorship 21 - Jieux - Sensor for hsa-mir-208a] (puzzle: Sensor for hsa-mir-208a) |  |  |  | 202 nM | 63.6 nM | 262 nM

Row | Sequence | apparent KD of MS2 coat protein (input ligand: FMN 200 uM) | apparent KD of MS2 coat protein [1] | apparent KD of MS2 coat protein (input ligand: none) | apparent KD of MS2 coat protein [2] | apparent KD of MS2 coat protein [3] | apparent KD of MS2 coat protein [4]
17 | AGUGGACAUGAGGAUCACCCAUGUAUGCUGGCAUGAGGAUAUCCGAUUCGUUUCGACUAAGGAGAAGGCAUAGCCC [Geonla] (Eterna round: R96, puzzle: Same State 1) | 37 nM | 98.9 nM | 116 nM |  |  | 
18 | AUAAAACAUGAGGAUCACCCAUGUCAACAAAGUCGAGGAUAUGGGCAAAUAAAAUAUGAACCAGAAGGCGAAUAAU [salish99_ss1_r3_019] (puzzle: Same State 1) |  |  |  | 35.8 nM | 221 nM | 310 nM
19 | AUAAAACAUGAGGAUCACCCAUGUCAACAAAGUCGAGGAUAUGGGCAAUUAAAAUAAGAACCAGAAGGCGAAUAAU [salish99_ss1_r3_025] (Eterna round: R96, puzzle: Same State 1) | 35.7 nM | 214 nM | 250 nM |  |  | 
20 | AUAAAACAUGAGGAUCACCCAUGUCAACAAAGUCGAGGAUAUGGGCAAUUAAAAUAAGAACCAGAAGGCGAAUAAU [salish99_ss1_r3_025] (puzzle: Same State 1) |  |  |  | 26.4 nM | 138 nM | 400 nM
21 | AUAAAACAUGAGGAUCACCCAUGUCAACAAAGUCGAGGAUAUGGGUAAAUAAAAUAAGAACCAGAAGGCGAAUAAU [salish99_ss1_r3_028] (Eterna round: R96, puzzle: Same State 1) | 122 nM | 713 nM | 941 nM |  |  | 
22 | AUAAAACAUGAGGAUCACCCAUGUCAACAAAGUCGAGGAUAUGGGUAAAUAAAAUAAGAACCAGAAGGCGAAUAAU [salish99_ss1_r3_028] (puzzle: Same State 1) |  |  |  | 83.5 nM | 283 nM | 163 nM
23 | AUAAAACAUGAGGAUCACCCAUGUCAUCAAAGUCGAGGAUAUGGGCAAAUAAAAUAAGAACCAGAAGGCGAAUAAU [salish99_ss1_r3_043] (puzzle: Same State 1) |  |  |  | 106 nM | 298 nM | 501 nM
24 | AUAAAUAAACAUGAGGAUCACCCAUGUGUUAUAUAAGCAAAUAAAUAAAUAAAUAAAUAAAUAAAUAAAUAAAUAAA [RNA Sequence] (puzzle: Sensor for hsa-mir-208a version 2) |  |  |  | 25.5 nM | 26.1 nM | 29.2 nM
25 | AUAAAUAACACAGGAUAUCCACACGAAUAGUGCGGAGAAGGGUGAACGUCGGCUCUCGCCAACAUGAGGAUCACCCAUGUAAAA [Tediissobe] (Eterna round: R96, puzzle: Same State NG 1) | 64.4 nM | 12.7 nM | 31.5 nM |  |  | 
26 | AUAACACUGGCAGGAUAUGGGAUUGGAAGUGUUCCAGAAGGGCCAGAACGGCGAUGGACAUGAGGAUCACCCAUGUCUUAGCCU [MOD Powerstrip SSNG 1.4 (Unstable)] (Eterna round: R96, puzzle: Same State NG 1) | 13 nM | 7.66 nM | 9.48 nM |  |  | 
27 | AUAAGAAACACAGGAUAUACCGUGCUUAACGCGGUAGAAGGGUGGGACAUGAGGAUCACCCAUGUGGUCCGGGCGCCGGACCGC [Erarlaa] (Eterna round: R96, puzzle: Same State NG 1) | 934 nM | 296 nM | 309 nM |  |  | 
28 | AUAAGGCAAGCUUUUUUCUCGUAAUGUAAACAUGAGGAUCACCCAUGUGCCCAUCCUGGAUCUUUGGAUCGCAGAAC [Usbexe] (puzzle: Sensor for hsa-mir-208a) |  |  |  | 34.6 nM | 25.9 nM | 40.7 nM
29 | AUAAGGCAAGCUUUUUUCUCGUAGUAUAAACAUGAGGAUCACCCAUGUGCCCACCCUGGAUCUUUGGAUCGCAGAAC [Vetera] (puzzle: Sensor for hsa-mir-208a) |  |  |  | 26.8 nM | 16.5 nM | 26.3 nM
30 | AUAAGGCAAGCUUUUUUCUCGUAGUGUAAACAUGAGGAUCACCCAUGUGCCCACCCUAGAUCUUUGGAUCGCAGAAC [Atrageus] (puzzle: Sensor for hsa-mir-208a) |  |  |  | 22.8 nM | 16.8 nM | 26.8 nM
31 | AUAAGGCAAGCUUUUUUCUCGUAGUGUAAACAUGAGGAUCACCCAUGUGCUCGCCCUGGAUCUUUGGAUCGCAGAAA [Geedbigexe] (puzzle: Sensor for hsa-mir-208a) |  |  |  | 46.7 nM | 18.6 nM | 45.3 nM
